US20250027068A1
Changes are numbered by the printed parent chain.

B1: VRT-26 (Fc fusion)
chain: VTSVWTKGVTPPTNFTYGEDVLHAPYVANQGWYDITKTFNGKDNLLCGAATAGNMLHWWFDQNKEQIENYLKKHPEKQKINFNGEQLFDVKEAIDTKDSQLDSKLFEYFKEKAFPYLSTKHLGVFPDHVIDMFINGYRLSLTNHGPTPVKRGSKDKRGGIFDAVFTRGVQSKLLTNRHDFKEKTLKEISDLIKQELTEGKALGISHTYANVRINHVINLWGADFDAEGNLEAIYVTDSDTNASIGMKKYFVGVNSNGKVAISAKEIEEDNIGAQVLGLFTLSTGQDIWNQTNDKTHTCPPCPAPEAAGAPSVFLFPPKPKDTLMISRTPEVTCVVVDVSHEDPEVKFNWYVDGVEVHNAKTKPREEQQNSTYRVVSVLTVLHQDWLNGKEYKCKVSNKALKAPIEKTISKAKGQPREPQVYTLPPSRDELTKNQVSLTCLVKGFYPSDIAVEWESNGQPENNYKTTPPVLDSDGSFFLYSKLTVDKSRWQQGNVFSCSVMHEALHNHYTQKSLSLSPG
B2: VRT-24 (Fc fusion)
chain: VTSVWTKGVTPPANFTQGEDVFHAPYKANQGWYDITKTFNGKDNLLCGAATAGNMLHWWFDQNKDQIEAYLKEHPEKQKINFNGEQLFDVKEAIDTKDDQTNSKLFEYFKEKAFPYLSTKHLGVFPDHVLDMFINGYRLSLTNHGPTPVKEGSKDKRGGIFDAVFTRGVQSKLLTSRHDFKEKTLKEISDLIKQELTEGKALALSHTYANVRINHVINLWGADFDSNGNLEAIYVTDSDTNASIGMKKYFVGVNSAGKVAISAKEIEDDNIGAQVLGLFTLSTGQDIWNQTNDKTHTCPPCPAPEAAGAPSVFLFPPKPKDTLMISRTPEVTCVVVDVSHEDPEVKFNWYVDGVEVHNAKTKPREEQQNSTYRVVSVLTVLHQDWLNGKEYKCKVSNKALKAPIEKTISKAKGQPREPQVYTLPPSRDELTKNQVSLTCLVKGFYPSDIAVEWESNGQPENNYKTTPPVLDSDGSFFLYSKLTVDKSRWQQGNVFSCSVMHEALHNHYTQKSLSLSPG
B3: VRT-35 (Fc fusion)
chain: B2 chain with G41R, N83K, N241E, S255K
B4: VRT-25 (Fc fusion)
chain: B2 chain with K27V, A69R, D99S, N102D, A203G, N227E, E231K, E267K, D268E
B5: VRT-30 (Fc fusion)
chain: QITSVWTKGVTPPTPEQFRYNNEDVIHAPYLANQGWYDITKTFNGKDNLLCGAATAGNMLHWWFDQNKTEIEAYLSKHPEKQKIIFNNQELFDLKAAIDTKDSQTNSQLFNYFRDKAFPGLSARQLGVFPDLVLDMFINGYYLNVFKTQSTDVNRPYQDKDKRGGIFDAVFTRGVQTTLLTARHDLKNKTLNDISTLIKQELTEGKALALSHTYANVRISHVINLWGADFNAEGNLEAIYVTDSDANASIGMKKYFVGVNAHGKVAISAKKIEGENIGAQVLGLFTLSSGKDIWQKLSDKTHTCPPCPAPEAAGAPSVFLFPPKPKDTLMISRTPEVTCVVVDVSHEDPEVKFNWYVDGVEVHNAKTKPREEQQNSTYRVVSVLTVLHQDWLNGKEYKCKVSNKALKAPIEKTISKAKGQPREPQVYTLPPSRDELTKNQVSLTCLVKGFYPSDIAVEWESNGQPENNYKTTPPVLDSDGSFFLYSKLTVDKSRWQQGNVFSCSVMHEALHNHYTQKSLSLSPG
B6: VRT-31 (Fc fusion)
chain: B5 chain with P13L, S76K, T190G, D193E, A246S
B7: VRT-32 (Fc fusion)
chain: B5 chain with I26F, L31T, N33H, N44D, Q108A, L197I, K206R, A246S, H262S
B8: VRT-23 (Fc fusion)
chain: SQTEDSESLQRLRDIEDFQAEKKMQNVVYTKWLDGVDVKDHDFRKIVDGNIAYYATPLLNGRGFYDINKDFNRDNDKCAAAVAANMFHYWLDINRDNVDRFLRQNPEKHGIIELPDEQLKLSDFLNTYESDHGYRDKSKLFDFISNNFNKPVWTDKLLDNYINGYAYNYKYGRTIEDSTKNTSKINFFKEVFNEKILTNIHSIRNQNEFSVLLSEALYTGKAIGLSYGPAGLRHSLGHIISVWGADLDADGNVVAIYVTDSDDKKLTIGDERVGLKRYKISTDDENRLRLTAYEETHNTGGQIRGLWTLDTGKYAWADYFDKTEQTGTDQAEQDKTHTCPPCPAPEAAGAPSVFLFPPKPKDTLMISRTPEVTCVVVDVSHEDPEVKFNWYVDGVEVHNAKTKPREEQQNSTYRVVSVLTVLHQDWLNGKEYKCKVSNKALKAPIEKTISKAKGQPREPQVYTLPPSRDELTKNQVSLTCLVKGFYPSDIAVEWESNGQPENNYKTTPPVLDSDGSFFLYSKLTVDKSRWQQGNVFSCSVMHEALHNHYTQKSLSLSPG
B9: VRT-34 (Fc fusion)
chain: B8 chain with M24K, E117G, K150G, I200N, N286G, Y314Q
B10: VRT-33 (Fc fusion)
chain: B8 chain with M24K, I93R, E117G, H132D, K150G, I200N, N286G, Y314Q
B11: VRT-27 (Fc fusion)
chain: VTSVWTKGVTPPADFTQGEDVFHAPYVANQGWYDITKTFNGKDNLLCGAATAGNMLHWWFDQNKEYIEAYLKKHPEKQKIIFGDQELLDVRKAINTKGSQKNSELFNYFRDKAFPNLSARRLGVFPDLVLDMFINGYYLNVTKTQTTDVNRTYQEKDKRGGIFDAVFTRGVQSKLLTSRHDFKEKGLKEISDLIKQELTEGKALGLSHTYANVRINHVINLWGADFDSDGNLKAIYVTDSDTNASIGMKKYFVGVNSAGKVAISAKEIKEDNIGAQVLGLFTLSTGQDIWNQTNDKTHTCPPCPAPEAAGAPSVFLFPPKPKDTLMISRTPEVTCVVVDVSHEDPEVKFNWYVDGVEVHNAKTKPREEQQNSTYRVVSVLTVLHQDWLNGKEYKCKVSNKALKAPIEKTISKAKGQPREPQVYTLPPSRDELTKNQVSLTCLVKGFYPSDIAVEWESNGQPENNYKTTPPVLDSDGSFFLYSKLTVDKSRWQQGNVFSCSVMHEALHNHYTQKSLSLSPG
B12: VRT-28 (Fc fusion)
chain: ITSVWTKGVTPPAKFTQGEDVFHAPYVANQGWYDITKTFNGKDNLLCGAATAGNMLHWWFDQNKEEIEAYLKKHPEKQKIIFGDQELLDVRKVINTKDSQTNSALFNYFKDKAFPNLSARRLGVFPDLVLDMFINGYYLNVYKTQTTDVNRTYQTKDRRGGIFDAVFTRGVQSKLLTERHDFKEKTLKEISDLIKQELTEGKALGLSHTYANVRINHVINLWGADFDSNGNLEAIYVTDSDTNASIGMKKYFVGVNSAGKVAISAKEIKEDNIGAQVLGLFTLSTGQDIWNQTNDKTHTCPPCPAPEAAGAPSVFLFPPKPKDTLMISRTPEVTCVVVDVSHEDPEVKFNWYVDGVEVHNAKTKPREEQQNSTYRVVSVLTVLHQDWLNGKEYKCKVSNKALKAPIEKTISKAKGQPREPQVYTLPPSRDELTKNQVSLTCLVKGFYPSDIAVEWESNGQPENNYKTTPPVLDSDGSFFLYSKLTVDKSRWQQGNVFSCSVMHEALHNHYTQKSLSLSPG

Biological target: pooled human IgG (human)
Test: cell-based or functional assay

Row | Binder | Enzyme Activity Endpoint Assay: Fab′2 [ng/µL] | Enzyme Activity Endpoint Assay: Fc [ng/µL] | Enzyme Activity Endpoint Assay: IgG [ng/µL] | Enzyme Activity Endpoint Assay: scIgG [ng/µL]
1 | B1 | 0 | 213 | 303 | 342
2 | B2 | 0 | 187 | 392 | 249
3 | B3 | 0 | 25 | 1020 | 22
4 | B4 | 12 | 204 | 183 | 284
5 | B5 | 0 | 46 | 986 | 22
6 | B6 | 0 | 27 | 1020 | 21
7 | B7 | 0 | 96 | 803 | 79
8 | B8 | 0 | 29 | 1010 | 20
9 | B9 | 0 | 5 | 1020 | 20
10 | B10 | 0 | 5 | 1040 | 21
11 | B11 | 0 | 92 | 1150 | 33
12 | B12 | 0 | 3 | 987 | 22
